The target in data set [1] is Int5 (Int-h/218 mutein) Int-h/218 substitutions (not given),I43A (Bacteriophage lambda) (UniProt P03700). Briefly: cell_activity. As to conditions: attB x attP GFP reporter in HEK293, relative to Int-h/218.
Data set [2] has as its target Int1 (Int-h/218 mutein) Int-h/218 substitutions (not given),I43A,H61R (Bacteriophage lambda) (UniProt P03700). Briefly: cell_activity. As to conditions: attB x attP GFP reporter in HEK293, relative to Int-h/218.
In data set [3] the target is Int-h/218 (parental lambda integrase mutant) Int-h/218 substitutions (not given) (Bacteriophage lambda) (UniProt P03700). As to conditions: attB x attP recombination, real-time PCR; reference activity.
Data set [4] deals with Int5 (Int-h/218 mutein) Int-h/218 substitutions (not given),I43A (Bacteriophage lambda) (UniProt P03700). The following applies: attH x attPH, relative to Int-h/218 on attB x attP.
The target in data set [5] is Int1 (Int-h/218 mutein) Int-h/218 substitutions (not given),I43A,H61R (Bacteriophage lambda) (UniProt P03700). As to conditions: attH x attPH, relative to Int-h/218 on attB x attP.

The record followed here is patent US20130017578.

Read-outs that look alike come from different tables or passages of the source.

As to “CAGCTTTTTTATACTAAGTTG (double strand) [attP core]”, the binding signal in data set [1] (attH x attP <1% activity) worked out at 65%; in data set [2] (attH x attP <1% activity), 50%; in data set [3], 100%.
As for “CTGCTTTCTTATACCAAGTGG (double strand) [attH]”, the binding signal was 100% in data set [4] (9-fold over Int-h/218 on genomic attH (FIG. 4D)) and 140% in data set [5] (7-fold over Int-h/218 when translated in vitro (FIG. 4A)).
In the case of “CAGCTTTCTTATACCAAGTTG (double strand) [attPH]”, the binding signal came to 100% in data set [4] and 140% in data set [5].
In the case of “CTGCTTTTTTATACTAACTTG (double strand) [attB core]”, the binding signal in data set [1] was determined as 65%; in data set [2] it was 50%; in data set [3] it was 100%.
